The labels stand for the following.
B1: Ac-…-NH2 (SEQ ID NO: 8) (peptide)
peptide: Ac-KDLMVQWFKDGGPSSGAPPPS-NH2
B2: FITC-Aha-…-NH2 (SEQ ID NO: 17) (peptide)
peptide: XMIILIISFPKHKDWKVILVK
modifications: N-terminal FITC-Aha (fluorescein isothiocyanate on amino hexanoic acid), C-terminal amide (NH2)
B3: Ac-…-NH2 (SEQ ID NO: 10) (peptide)
peptide: Ac-PFPPLPIGEEAPKDDMVRFFKDLHQYLNVV-NH2
B4: Ac-…-NH2 (SEQ ID NO: 23), control CPP designed not to bind IRF5 (peptide)
peptide: Ac-YLKFIPLKRAIWLIK-NH2
B5: Ac-…-NH2 (SEQ ID NO: 9) (peptide)
peptide: Ac-IRLQISNPDLKDLMVQWFKDGGPSSGAPPPS-NH2
B6: Ac-…-NH2 (SEQ ID NO: 14) (peptide)
peptide: Ac-MIILIISFPKHKDWKVILVK-NH2
B7: FITC-Aha-…-NH2 (SEQ ID NO: 16) (peptide)
peptide: XIRLQISNPYLKFIPLKRAIWLIK
modifications: N-terminal FITC-Aha (fluorescein isothiocyanate on amino hexanoic acid), C-terminal amide (NH2)

Drawing on US20160009772A1, “CELL PENETRATING PEPTIDES WHICH BIND IRF5” (priority 2012, published 2016), this text covers IC50 for seven molecules.

For one test, the target named is IRF5(222-467, S430D), S430D phosphomimetic construct of IRF5 (222-467) (human), Q13568.
Chain of IRF5(222-467, S430D), S430D phosphomimetic construct of IRF5 (222-467) (human), Q13568 (Q13568 232-477 S440D limits assumed): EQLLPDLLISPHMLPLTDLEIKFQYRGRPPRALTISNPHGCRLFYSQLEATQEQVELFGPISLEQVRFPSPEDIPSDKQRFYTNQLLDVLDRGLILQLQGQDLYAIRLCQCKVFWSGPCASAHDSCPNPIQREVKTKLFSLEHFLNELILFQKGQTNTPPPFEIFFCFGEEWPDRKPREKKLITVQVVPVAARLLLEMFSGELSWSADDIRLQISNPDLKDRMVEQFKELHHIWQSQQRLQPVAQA
Test: not given
On to B1, for which the IC50 was determined as 1680 nM.

The target in the next test is Wild type IRF5 (222-467) (human) (UniProt Q13568). The test can be described thus: TR-FRET IRF5 dimerization inhibition, WT (222-467), peptide titrated.
With B2, the IC50 worked out at 5300 nM.
The same measure, in the same setting: the result for B3 reads 350 nM; that for B4, over 75000 nM.
Still for that read-out and setting: the figure for B1 is 790 nM; for B5 it is 1400 nM.
On the same count and under the same terms, the result for B6 reads 18600 nM; that for B7, 46500 nM.
